Source: patent publication US7488590B2, “Modified peptides as therapeutic agents” (Amgen Inc., priority 1998, dated 2009)
“And” between values parts separate entries of the source, which are not always exact repeats. Equal values may be shown once. “Also recorded” adds a separate entry of the source. Where no end group is shown, it is not given here. Side-chain parts run from the residue outwards. maleimide = maleimide-containing PEG attached to the Cys side-chain thiol; PEG = not defined here

How the values were obtained:
human mpl receptor = molecular target: T1, human mpl receptor (Homo sapiens, UniProt P40238); assay: TPO in vitro bioassay: mitogenic (cell-proliferation) assay in IL-3 dependent murine 32D cells transfected with human mpl receptor; format: cell-based
T1 construct: murine 32D cells transfected with the full-length c-Mpl; expressed in transfected cells; host or cells: IL-3 dependent clone of murine 32D cells
T1 sequence (P40238 26-635): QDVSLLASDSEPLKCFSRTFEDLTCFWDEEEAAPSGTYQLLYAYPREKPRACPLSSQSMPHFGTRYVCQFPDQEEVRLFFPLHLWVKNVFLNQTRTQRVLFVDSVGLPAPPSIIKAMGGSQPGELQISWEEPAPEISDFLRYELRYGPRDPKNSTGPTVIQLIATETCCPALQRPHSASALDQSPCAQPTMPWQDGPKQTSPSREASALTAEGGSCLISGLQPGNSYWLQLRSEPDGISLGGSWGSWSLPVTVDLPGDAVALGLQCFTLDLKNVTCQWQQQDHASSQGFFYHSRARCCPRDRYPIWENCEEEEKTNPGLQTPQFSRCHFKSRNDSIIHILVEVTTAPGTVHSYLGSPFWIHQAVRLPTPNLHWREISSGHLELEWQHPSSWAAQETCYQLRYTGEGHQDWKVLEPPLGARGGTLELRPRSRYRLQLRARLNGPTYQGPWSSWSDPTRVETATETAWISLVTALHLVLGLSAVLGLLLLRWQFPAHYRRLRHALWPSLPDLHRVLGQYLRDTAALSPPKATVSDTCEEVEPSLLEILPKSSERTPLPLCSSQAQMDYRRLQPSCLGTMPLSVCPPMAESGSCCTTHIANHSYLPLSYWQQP
Method: Bioactivity assay. The TPO in vitro bioassay is a mitogenic assay utilizing an IL-3 dependent clone of murine 32D cells that have been transfected with human mpl receptor. This assay is described in greater detail in WO 95/26746. Cells are maintained in MEM medium containing 10% Fetal Clone II and 1 ng/ml mIL-3. Prior to sample addition, cells are prepared by rinsing twice with growth medium lacking mIL-3. An extended twelve point TPO standard curve is prepared, ranging from […]. Four dilutions, estimated to fall within the linear portion of the standard curve, (100 to 125 pg/ml), are prepared for each sample and run in triplicate. A volume of 100 μl of each dilution of sample or standard is added to appropriate wells of a 96 well microtiter plate containing 10,000 cells/well. After forty-four hours at 37° C. and 10% CO2, MTS (a tetrazolium compound which is bioreduced by cells to a formazan) is added to each well. Approximately six hours later, the optical density is read on a plate reader at 490 nm. A dose response curve (log TPO concentration vs. O.D.-Background) is generated and linear regression analysis of points which fall in the linear portion of the standard curve is performed. Concentrations of unknown test samples are determined using the resulting linear equation and a correction for the dilution factor.
The resulting peptides are readily accessible by conventional solid phase peptide synthesis methods (Merrifield (1963), J. Amer. Chem. Soc. 85: 2149) with either Fmoc or t-Boc chemistry. […] This might be due to differences in the conditions used in the two assays. […] It is interesting to note that a wide range of length is tolerated by the linker. The optimal linker between tandem peptides with the selected TMP monomers apparently is composed of 8 glycines.

IL-1R = molecular target: T2, IL-1R (Homo sapiens, UniProt P14778); assay: IL-1 Receptor Binding competition assay (IGEN system); conditions: 0.4 nM biotin-IL-1R + 15 nM IL-1-TAG, competitor 3 uM to 1.5 pM
T2 sequence (P14778 18-569): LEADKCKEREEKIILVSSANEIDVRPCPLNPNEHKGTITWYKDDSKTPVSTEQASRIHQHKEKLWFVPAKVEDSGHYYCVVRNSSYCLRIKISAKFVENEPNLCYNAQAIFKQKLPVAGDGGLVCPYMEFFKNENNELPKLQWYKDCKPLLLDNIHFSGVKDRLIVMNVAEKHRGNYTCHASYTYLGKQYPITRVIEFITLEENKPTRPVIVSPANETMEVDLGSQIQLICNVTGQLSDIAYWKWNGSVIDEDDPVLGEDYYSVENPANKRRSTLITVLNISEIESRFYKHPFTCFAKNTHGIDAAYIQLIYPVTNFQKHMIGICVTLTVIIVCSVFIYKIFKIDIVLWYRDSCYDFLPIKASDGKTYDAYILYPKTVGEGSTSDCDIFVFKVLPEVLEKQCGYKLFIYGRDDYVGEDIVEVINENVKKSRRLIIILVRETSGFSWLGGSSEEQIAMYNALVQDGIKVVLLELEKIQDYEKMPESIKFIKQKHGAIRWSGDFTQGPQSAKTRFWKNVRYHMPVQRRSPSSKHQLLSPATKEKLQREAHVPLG
Method: Characterization of Fc-IL-1 antagonist peptide and IL-1 antagonist peptide-Fc activity. IL-1 Receptor Binding competition between IL-1β, IL-1RA and Fc-conjugated IL-1 peptide sequences was carried out using the IGEN system. Reactions contained 0.4 nM biotin-IL-1R+15 nM IL-1-TAG+3 uM competitor+20 ug/ml streptavidin-conjugate beads, where competitors were IL-1RA, Fc-IL-1 antagonist, IL-1 antagonist-Fc). Competition was assayed over a range of competitor concentrations from 3 uM to 1.5 pM.

[1] = TPO-dependent cell-proliferation assay, 32D cells transfected with c-Mpl

Substance	in vitro bioactivity (in words) (human mpl receptor; [1])	further results
peptide 20: PEGylated peptide (SEQ ID NO: 4); Cys side chain in linker modified by maleimide-containing PEG (IEGPTLRQWLAARAGGGC([maleimide-PEG])GGGGIEGPTLRQWLAARA; reading uncertain)	even higher in vitro bioactivity as compared to their unpegylated counterparts	
peptide 19: PEGylated peptide (SEQ ID NO: 3); Lys side chain in linker modified by 5 kDa PEG (IEGPTLRQWLAARAGGGK(PEG 5 kDa)GGGGIEGPTLRQWLAARA)	even higher in vitro bioactivity as compared to their unpegylated counterparts	
21: TMP tandem repeat with potential glycosylation motif NGS in its 8-amino acid linker (IEGPTLRQWLAARAGGGNGSGGIEGPTLRQWLAARA; TPO-MIMETIC PEPTIDES) [compound 21]	maintained high bioactivity; also recorded: activity comparable to that of the —(G)8— linked analog	
IL-1RA: competitor in the IL-1 receptor binding competition assay		EC50 (IL-1R): 2.65 nM; Ki (IL-1R): 1.41 nM
IEGPTLRQWLAARA (TMP) [reference compound]	relatively low biopotency	
peptide 13: TMP tandem repeat with a linker composed of GPNG (IEGPTLRQWLAARAGPNGIEGPTLRQWLAARA; TPO-MIMETIC PEPTIDES)		increase in potency as compared to the monomer (human mpl receptor; TPO-dependent cell-proliferation assay, 32D cells transfected with c-Mpl, versus TMP monomer): about 100 fold; decrease in activity versus the equivalent GGGG-linked analog (human mpl receptor; cell-proliferation assay, versus tandem repeat with 4-Gly linker): > 10 fold and 10 fold
peptide 16: TMP tandem repeat in which the two Trp residues were replaced by Ala (IEGPTLRQWLAARAGGGGGGGGIEGPTLRQWLAARA; TPO-MIMETIC PEPTIDES)	inactive	
